In patent US20250304625A1, “ARTICLES AND METHODS FOR INHIBITING METHIONINE AMINOPEPTIDASE ACTIVITY” (Vanderbilt University, priority 2022, published 2025):

How the values were obtained:
[1] = system: zebrafish larvae (WT and zng1^−/−); assay: Zebrafish larval survival under Metap inhibitor immersion; format: in vivo
Procedure: (§1) For all experiments larval zebrafish were bred naturally and collected into embryo media and were maintained at 28° C. on a 14/10 h light/dark cycle for duration of experiments. For survival experiments, zebrafish larvae were split into even densities into 6 or 12 multi-well plates in 5 mL or 1 mL embryo media respectively at 3 dpf. Stock solutions of METAP2 inhibitor TNP-470 (Sigma, T1455) and METAP1/2 inhibitor Bengamide B (Santa cruz, sc-397521A) were prepared in ACS-grade DMSO (Fisher Scientific, D136) and TPEN (Sigma, P4413) was prepared in ethanol and stored at −20° C. TNP-470, Bengamide B, and/or TPEN were applied into embryo media as well as a DMSO and/or ethanol vehicle controls at 3 dpf. Zebrafish survival was monitored daily until 6 dpf and all moribund or dead animals were removed. For qPCR experiments, larvae were split at 3 dpf into groups of 20-30 larvae in 20 mL of embryo media supplemented either 20 μM of TPEN or ethanol vehicle control. For imaging experiments, 6 dpf zebrafish larvae treated with 500 nM to 1 μM of Bengamide B or vehicle control were imaged by a Leica Thunder M205FCA stereomicroscope with a Leica DFC9000 GT camera.

[2] = system: TKPTS cells; assay: TKPTS cell proliferation by CellTrace flow cytometry; format: cell-based, murine
Procedure: TKPTS cells were seeding at 2,000 to 4,000 cells per well of 24- or 12-well tissue culture treated multi-well plates and incubated overnight at 37° C. Cells were staining with CellTRACE violet (Invitrogen, C34557) as described by manufacturer's protocol. Briefly, CellTRACE solution was prepared in PBS at a 1:1,000 dilution, added to the cells, and cells were incubated for 20 min at 37° C. Cells were then washed two times in cell culture media supplemented with 7% FBS, and replaced with fresh cell culture media supplemented with desired chemical treatments (3 μM TPA, Sigma, 723134; 5 μg/ml TNP470, Sigma, T1455; or 50 nM Bengamide B, Santa cruz, sc-397521A). Stock solutions of drugs were prepared in ACS-grade DMSO (Fisher Scientific, D136). […] After three days of growth, cells were stained with MitoTracker far-red (Invitrogen, M22426; 1:2500 dilution for 20 min at 37° C.) and MitoSOX red (Molecular probes, M36008: 1,1000 for 20 min at 37° C.) following manufacture's protocols. Cells were washed with PBS, trypsinized, and transferred to Eppendorf tubes prior to fixation in 4% PFA (Alfa aesar, J61899). Cells were fixed for 20 min at room temperature, centrifuged at 200×g for 10 min and washed with PBS prior to resuspension in 300 μl FACS buffer (2% FBS, 0.02% sodium azide in PBS). All flow cytometry data were collected using a BD LSRII flow cytometer with FACSDIVA software and analyzed using FlowJo (FlowJo LLC). Samples were gated forward scatter height (FSC-H) by forward scatter area (FSC-A) and side scatter height (SSC-H) by side scatter area (SSC-A) to remove doublet populations. The singlet population was gated SSC-A by FSC-A to isolate live cells. The resulting cell population was then assessed for assay-specific fluorescent markers and the median fluorescence intensity (MFI) quantified.

[3] = system: zebrafish larvae (WT, zng1 mutant, metap1 mutant); assay: Zebrafish larval morphometry and gross pathology imaging; format: in vivo
Procedure: as §1

[4] = molecular target: T1, murine METAP1 (Mus musculus, UniProt Q8BP48); assay: Murine ZNG1 activation of METAP1 assay (Met release from MAHAIHY); format: biochemical
T1 construct: final preparations of full-length METAP1 utilized in in vitro experiments in this study were purified, stripped of metal; 6xHis (N, cleaved yes); SUMO (N, cleaved yes); made in house; host or cells: E. coli BL21(DE3)
Procedure: Methionine aminopeptidase activity was evaluated by quantifying the release of Met from the heptapeptide MAHAIHY (Genscript) as adapted from (Kabir-ud-Din, 2003). Reactions were conducted at 25° C. in 25 mM HEPES pH 7.4, 150 mM NaCl, 2 mM TCEP and consisted of 20 nM murine METAP1 with 0, 1, or 2 molar equivalents of Zn. Reactions were initiated with the addition of varying concentrations of MAHAIHY peptide. 50 μL aliquots were taken every 30 sec from 30-150 sec and the reaction was quenched with the addition of 10 μL glacial acetic acid (Supelco, Sigma-Aldrich). 60 μL of 4% w/v ninhydrin (Sigma-Aldrich) in 100% ACN was added to each quenched reaction and incubated at 37° C. for 1 h to detect free Met. The absorbance at 570 nm was measured and the cleaved Met concentration was determined from a standard curve of 10-500 μM Met. All data are reported as the average of triplicate measurements from each evaluated experimental condition. Midpoint and completed reactions were additionally analyzed by LC-ESI-MS to confirm the generation of the expected AHAIHY cleaved peptide product (FIG. 11 I).
Activation assays were performed in 25 mM HEPES pH 7.4, 150 mM KCl, 2 mM MgCl2, 2 mM TCEP. 250 μM NTA was included where indicated. 10 μM Zn2METAP1 was incubated with 25 μM apo or ZnZNG1 (ZNG1 loaded with 0.9 eq, 22.5 μM, Zn) at 37° C. for 1 h. Reactions were diluted 500-fold in 25 mM HEPES pH 7.4, 150 mM NaCl, 2 mM TCEP to a final concentration of 20 nM METAP1 and methionine aminopeptidase activity was assayed as described above by initiating the enzymatic reaction with addition of 750 μM MAHAIHY. When using GTP, GDP, or GDPNP, the activation reaction contained 500 μM of the indicated nucleotide. A control activation reaction of Zn-NTA contained 22.5 μM and 250 μM NTA in reaction buffer.

[5] = molecular target: murine METAP1 1-59 (mouse, UniProt Q8BP48); assay: intrinsic Trp (W45) fluorescence quenching, 1:1 model
Procedure: (§2) Peptide binding experiments were performed using an ISS PC1 spectrofluorometer at 25.0° C. Intrinsic Trp fluorescence was monitored using λₑₓ=292 nm nm and λₑₘ=350 nm, with quenching of the 350 nm emission maxima as aliquots of ZNG1 peptide were added. Different [METAP1_{1-59/1-79}] values were used for replicate experiments to better calculate the binding stoichiometry and analyzed globally. In a typical experiment, 5 μM METAP1_{1-59/1-79} in 2.5 mL were incubated for 10 min in chelexed buffer [25 mM HEPES (pH 7.4), 150 mM NaCl, and 2.5 mM TCEP], and aliquots of ZNG1 peptide were added. The equilibrium time was 2 min between subsequent additions of ZNG1 peptide. The peak emission intensities at 350 nm from triplicate experiments were globally fit to a 1:1 binding model using Dynafit (Kuzmic, 1996).
(§3) METAP1 binding of ZNG1 peptides was confirmed by monitoring quenching of W45 fluorescence in murine METAP1₁₋₅₉ and METAP1₁₋₇₉, upon addition of chemically synthesized N-terminal ZNG1 peptides from human, mouse, and zebrafish (FIGS. 2D,E and 9 I). […] Combined, these findings identify the specific regions of interaction between ZNG1 and METAP1.

[6] = molecular target: murine METAP1 1-79 (mouse, UniProt Q8BP48); assay: as above
Procedure: as §2, §3

[7] = molecular target: T2, zebrafish Metap1 (Danio rerio, UniProt Q4QRK0); assay: Zebrafish Metap1 methionine aminopeptidase activity (HPLC endpoint); format: biochemical; settings: 1 μM Dr Zng1 and 1 μM Metap1, 100 μM MAHAIHY
T2 construct: Full-length zebrafish metap1 was amplified from 6 dpf whole larval cDNA and cloned into pLM302; 6xHis (N); MBP (N); made in house; host or cells: E. coli BL21(DE3)
Procedure: A single endpoint assay was used for these experiments. Reaction buffer (20 mM HEPES (pH 7.5), 150 mM NaCl) was chelex treated overnight at 4° C. 1 μM solutions of zebrafish Metap1 and Zng1 were made in reaction buffer. To strip Zn from the METAP1 active site, 3 μM of TPEN was incubated with 1 μM METAP1 at 4° C. for 1 h. To prepare holo-Zng1 (Zn bound), Zng1 was incubated with 10 μM of ZnCl2 for 1 h at 4° C. As a control, Metap1 was incubated with reaction buffer alone. Following the 1 h incubation, Zng1 and Metap1 were washed four times with chelex-treated reaction buffer using protein concentration columns (Amicon Ultra, UFC500396). After washes, proteins were mixed and incubated at 37° C. for 30 min. Following incubation, 100 μM of the synthetic peptide MAHAIHY (Genscript) was added to reactions and incubated for 90 min at 37° C. Reactions were stopped by the addition of a final concentration of 2% trifluoroacetic acid and samples were centrifuged at max speed for 5 min. […]
Twenty μL of each sample and standard was analyzed on an Agilent 1260 Infinity II system. […] MAHAIHY and AHAIHY were detected using absorbance at 280 nm, and retention times were confirmed using each standard. Methionine aminopeptidase relative activity was determined by calculating the percent of MAHAIHY converted to AHAIHY using the AUC values at 280 nm for each peptide.

[8] = 10 μM Zn2METAP1, 25 μM ZNG1, no nucleotide

Question: CCCCCCCCCCCCCC(=O)O[C@H]1CC[C@H](NC(=O)[C@H](OC)[C@H](O)[C@@H](O)[C@H](O)/C=C/C(C)C)C(=O)N(C)C1 [Bengamide B] was tested. Which survival ([1]; WT control larvae, 1 μM inhibitor, three days of treatment) did it give?
Answer: remained viable

Question: What about the lethality ([1]; zng1 mutant larvae, 1 μM inhibitor, three days of treatment) of the same molecule?
Answer: 100%

Question: What about the viability ([1]; zng1 mutant larvae, co-treatment 500 nM Bengamide B and TPEN vs 500 nM Bengamide B alone) of the same molecule?
Answer: decreased viability

Question: And the “proliferation (CellTrace)” value ([2]; WT TKPTS cells, 50 nM Bengamide B)?
Answer: reduced cellular proliferation

Question: And the “height at anterior anal fin (HAA)” value ([3]; WT larvae, 6 dpf, three days 500 nM vs vehicle)?
Answer: significantly reduced HAA

Question: And the “morphologic abnormalities (PCE, YSE, USB, CD)” value ([3]; metap1 mutant larvae vs WT controls at 6 dpf, 1 μM)?
Answer: significantly higher morphologic abnormalities

Question: How did the survival ([1]; zng1 mutant larvae compared to WT, Zn-deplete conditions (TPEN)) turn out when CO[C@@H]1[C@H](OC(=O)NC(=O)CCl)CC[C@]2(CO2)[C@H]1[C@@]1(C)O[C@@H]1CC=C(C)C [TNP-470] was run?
Answer: more pronounced

Question: What about the survival ([1]; zng1 mutant larvae compared to WT, immersion, three days) of the same molecule?
Answer: decreased survival

Question: What about the “proliferation (CellTrace)” value ([2]; Zng1^−/− cells relative to WT, 5 μg/ml TNP-470) of the same molecule?
Answer: slowed proliferation

Question: “ApoZNG1: recombinant murine ZNG1 devoid of bound metal” was tested. Which “activation of Zn2METAP1” value [4, 8] did it give?
Answer: no activation

Question: With Hs ZNG1 N-terminal peptide as the molecule, how does the Kd [5] read?
Answer: 100 nM

Question: And the Kd [6]?
Answer: 100 nM

Question: How did the apo-Metap1 activity [7] turn out when “Zebrafish Zng1: recombinant zebrafish Zng1, Zn bound (holo-Zng1)” was run?
Answer: stimulates

Question: Which results are given for “ZnZNG1: recombinant murine ZNG1 loaded with 0.9 eq Zn at the high-affinity site”?
Answer: activation of Zn2METAP1 [4, 8]: recovers small amounts of Zn4METAP1 activity; activation of Zn2METAP1 ([4]; 250 μM NTA, GDPNP): no effect; activation of Zn2METAP1 ([4]; 250 μM NTA, GTP, above that of NTA-bound Zn): significant activation; activation of Zn2METAP1 ([4]; 250 μM NTA, presence and absence of GDP): only minor activation; activation of Zn4METAP1 ([4]; fully metalated Zn4METAP1, absence of nucleotide): no activation; activation of Zn2METAP1 ([4]; in the presence of 500 μM GDP): some ZnZNG1-dependent activation; activation of Zn2METAP1 ([4]; in the presence of 500 μM GDPNP): no activation; activation of Zn2METAP1 ([4]; in the presence of 500 μM GTP): nearly fully activates

Question: What does the source list for Ac-MEDEDECPELVPIKEKPSGP-NH2 [Dr ZNG1 N-terminal peptide]?
Answer: Kd [5]: ~100 nM; Kd [6]: ~100 nM

Question: How did the Kd [5] turn out when Ac-AEEEYAEDCPELVPIETKNQE-NH2 [Mm ZNG1 N-terminal peptide] was run?
Answer: ~100 nM

Question: What about the Kd [6] of the same molecule?
Answer: ~100 nM
